The values below come from patent publication US20260275324A1, “UNNATURAL AMINO ACID IN CELLULO SYNTHESIS FOR SITE-SPECIFIC PROTEIN MODIFICATION” (The Chinese University of Hong Kong, priority 2023, published 2026).

For experiment [1], the target named is CDK4 of MCF-7 cells (endogenous) (UniProt P11802). Kind of experiment: cell-based or functional assay.
Experiment [2] addresses α-synuclein (Homo sapiens, UniProt P37840). The settings on record: in vitro and in vivo, Liang et al. 2021; cited from earlier work.
Experiment [3] addresses GST-CDK4 (Sino Biological) (UniProt P11802). The experiment is described as follows: microscale thermophoresis (MST), against linear MBP-P16p as reference. A general note: In MST a laser heats a spot of the sample, and binding alters the fluorescence response.
The target is the same in experiment [4]. Kind of experiment: microscale thermophoresis (MST); Alexa Fluor 647-labelled MBP-cycP16p at 70 nM, GST-CDK4 titrated from 1.92 µM.

Chain of cycRGD-mCh-cycP16p (bifunctional bicyclic protein) (P42771 83-103): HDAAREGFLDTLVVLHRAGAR
Chain of GST-CDK4 (Sino Biological) (P11802 whole entry): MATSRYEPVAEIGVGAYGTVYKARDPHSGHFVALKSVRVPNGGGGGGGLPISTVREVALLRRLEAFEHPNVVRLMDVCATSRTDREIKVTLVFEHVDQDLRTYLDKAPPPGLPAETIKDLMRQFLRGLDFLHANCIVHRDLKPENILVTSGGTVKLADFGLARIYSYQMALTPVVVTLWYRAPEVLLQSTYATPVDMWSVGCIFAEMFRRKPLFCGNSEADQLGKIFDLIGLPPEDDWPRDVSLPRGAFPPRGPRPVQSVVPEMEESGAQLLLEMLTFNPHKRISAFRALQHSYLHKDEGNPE

“cycRGD-mCh-P16p (cycRGD-mCherry bearing linear uncyclized P16p) (from UniProt P42771 83-103)” showed a percent of MCF-7 cells arrested at G0/G1 phase (flow cytometry, 15 µM, 24 h) in experiment [1] of 46.7%.

In experiment [1], “cycRGD-mCh-cycP16p (bifunctional bicyclic protein) (from UniProt P42771 83-103)” displayed a percent of MCF-7 cells arrested at G0/G1 at 72 h (time course) of 88% and a percent of MCF-7 cells arrested at G0/G1 phase (flow cytometry, 15 µM, 24 h) of 76.7%.

In turn, “R9-P16p (linear P16p fused to the poly-arginine cell penetrating sequence; Pepmic) (from UniProt P42771 84-103) (peptide)” yielded a percent of MCF-7 cells arrested at G0/G1 phase (flow cytometry, 15 µM, 24 h) in experiment [1] of 60.7%.

For “SUMOmini2: earlier linear version of SUMO1 peptide (15-55), Liang et al.”, the “inhibition of α-synuclein aggregation” value in experiment [2] is “effectively inhibit α-synuclein aggregation in vitro and in vivo”.

In general, Kd refers to the constant that tells how readily two partners part at equilibrium. “MBP-cycP16p (cyclized MBP-P16p protein) (from UniProt P0AEX9 27-392; P42771 83-103)” returned a fold higher binding affinity compared to its linear counterpart MBP-P16p in experiment [3] of 4 fold. The same substance came in with a Kd in experiment [4] of 27.7 nM.
